Molecular target: ancGR2-LBD (ligand-binding domain of the ancestral glucocorticoid receptor 2), Dex-bound
Experiment: SPR

- Kd: 17.4 µM
Substance: ancGR2-LBD (ligand-binding domain of the ancestral glucocorticoid receptor 2), Dex-bound (domain or fragment)
